Results taken from patent EP4659810A1 (Université de Strasbourg, dated 2025).
Positions count from the first letter of the chain named.

T1: VP1 on entire replicative virions of BK virus genotype Ia (Dunlop strain; ATCC VR-837) (BK virus genotype Ia (Dunlop strain), UniProt P03088 1-362)
T1 sequence: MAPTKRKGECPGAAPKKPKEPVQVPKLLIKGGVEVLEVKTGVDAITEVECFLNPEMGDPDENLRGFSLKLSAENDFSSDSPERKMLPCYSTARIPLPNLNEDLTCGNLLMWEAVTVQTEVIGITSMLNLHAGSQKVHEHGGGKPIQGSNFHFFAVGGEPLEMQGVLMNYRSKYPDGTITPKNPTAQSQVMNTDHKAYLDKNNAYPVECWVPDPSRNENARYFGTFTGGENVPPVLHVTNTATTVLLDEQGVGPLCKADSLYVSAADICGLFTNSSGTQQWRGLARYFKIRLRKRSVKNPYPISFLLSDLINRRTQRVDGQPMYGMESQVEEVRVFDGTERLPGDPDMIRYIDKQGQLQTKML

T2: VP1 on BKV genotype II pseudovirions (GBR-12; AB263920) (BK virus genotype II (GBR-12; AB263920), UniProt P14996 1-362)
T2 chain: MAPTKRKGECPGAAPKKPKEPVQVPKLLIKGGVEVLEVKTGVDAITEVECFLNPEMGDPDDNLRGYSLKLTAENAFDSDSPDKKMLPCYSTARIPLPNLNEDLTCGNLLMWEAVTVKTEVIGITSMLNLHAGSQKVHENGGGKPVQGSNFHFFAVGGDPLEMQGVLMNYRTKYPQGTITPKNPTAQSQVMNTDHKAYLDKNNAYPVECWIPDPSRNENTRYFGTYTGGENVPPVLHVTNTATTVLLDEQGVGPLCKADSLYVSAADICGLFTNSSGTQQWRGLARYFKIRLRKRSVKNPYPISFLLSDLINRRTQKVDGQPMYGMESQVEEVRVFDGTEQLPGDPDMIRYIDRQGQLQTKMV

T3: VP1 on BKV genotype Ia pseudovirions (BK-D; JF894228) (BK virus genotype Ia (BK-D; JF894228), UniProt P03088 1-362)
T3 sequence: T1 sequence

B1: monoclonal antibody D10P4 (antibody, V domains shown)
VH: EVQLLESGGGLVQPGGSLRLSCVASGFSIRGYAMNWVRQAPGKGLEWVSSLTSNGATTYYADSVKGRFTISRDNSKNTLFLQMHSLRGEDTAVYYCAKDRDAEWLGSEPFDPWGQGTLVTVSS
VL: EIVLTQSPGTLSLSPGERATLSCRASQRVSSSYLAWYQHKFGQAPRLLIYGASRRATGIPDRFSGSGSGTDFTLTISRLEPEDFAVYYCQQYGSSPRSFGQGTKLEIK
B2: monoclonal antibody E3P7 (antibody, V domains shown)
VH: EVQLLESGGGLVQPGGSLRLSCAASGFSFRSYAMNWVRQAPGKGLEWVSSLNSAGVSTYYAESVKGRFTISRDNSKNTLYLQMNSLRGEDTAVYYCAKDRGVEWLGSEPIDPWGQGTLVTVSS
VL: B1 VL with S32N, F41P, G51R, R54S
B3: monoclonal antibody D6P7 (antibody, V domains shown)
VH: B2 VH with S28N, A33G, N52R, A54S, S57T, E62D, G101D, V102A, I110F
VL: B1 VL with R28S, V29L, S31N, F41P, Q43L, G51D, R54S, G67E, S95P
notes: Human mAb in human-IgG (heavy, kappa) expression plasmids, made in HEK293F
B4: monoclonal antibody G5P4 (antibody, V domains shown)
VH: B1 VH with I29L, K43R, T58A, S75F, F80Y, K98R, L118M
VL: not shown
notes: as for B3

Key:
[1] = target: T1, VP1 on entire replicative virions of BK …; test: cell-based or functional assay
[2] = target: VP1 on entire replicative virions of BKV genotype II (patient's isolate) (BK virus genotype II); test: cell-based or functional assay
[3] = target: T4, VP1 pentamer of BKV genotype IV (BK virus genotype IV); test: BLI (OctetRED96e), biotinylated VP1 pentamer on streptavidin sensor, mAb 0 to 40 nM in solution
T4 construct: Obtained by gene synthesis and subcloned into pESPRIT002; also called VP1 pentamer from genotype IV

[4] = target: T2, VP1 on BKV genotype II pseudovirions …; test: cell-based or functional assay
[5] = target: T3, VP1 on BKV genotype Ia pseudovirions …; test: cell-based or functional assay

Binder | IC50, neutralization of fully replicative BKV virions (MRC5 cells) [1] [ng/mL] | IC50, neutralization of fully replicative BKV virions (MRC5 cells) [2] [ng/mL] | Kd [3] [nM] | IC50, neutralization of BKV pseudovirions (luciferase, 293TT cells) [4] [ng/mL] | IC50, neutralization of BKV pseudovirions (luciferase, 293TT cells) [5] [ng/mL]
B1 | 0.06 | 0.05 |  |  | 
B2 | 0.03 | 0.005 |  |  | 
B3 |  |  | 32.1 | 0.2 | 
B4 |  |  | 136 |  | 0.2
